Test: yeast display, Sf9 membrane polyspecificity reagent, FACS + sequencing; frameworks hold sequencing errors
In short: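 Polyreactivity labels are assigned by the sorting gate from which each nanobody was recovered. The gates were low and high (top ~1%), set on anti-HA fluorescence for expression and streptavidin fluorescence for reagent binding. Before sorting, galactose-induced (36–48 hours) yeast display cells were stained for 1 hour at 4 °C with 10% biotinylated, detergent-solubilized Sf9 membrane reagent.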

| Sequence | polyreactivity (PSR sort gate) |
| --- | --- |
| QVQLLESGGGLVQAGGSLRLRCAASGFIISRYAMAWYRQAPGKEMELVAGITGSGGSTYYADSVKGRFTISRDNAKNTVYLQMNSLKPEDTAVYYCAAGRRGGALLFYYWGQGTLVTVSS | high polyreactivity |
| QVQLVESGGGLVQAGGSLRLSCAASGITFYRYAVGWYRQAPGKERELVAAISCRGGRTYYADSVKGRFTISRDNAKKTVYLQMISLKPEDTAVDYCAAVASRIRGWLDITAYDYWGQGTQVTVSS | high polyreactivity |
| QVQLVESGGGLVQAGGSLRLSCAASGSIFATYAMGWYRQAPGKERELVADISWNGGSTYYADSVKGRFTISRDNAKNTVYLQMNSLKPEDTAVYYCAVGYWGRFGFRGYGYWGQGTQVTVSS | low polyreactivity |
| QVQLVESGGGLVQAGGSLRLICAASGRTFSGYAMGWYRPAPGKERELVAAINWSTGSTYYADSVKGRFTISRDNAQNTVYLQMNSLKPEDTAVYYCAAGYYYYGNGRIVQYEYWGQGTQVTVSS | high polyreactivity |
| QEQLQESGGGLVQACGSLRLSCAASGSISGSSTMGWYRQAPGKERELVASIAVGANTNYADSAKGRFTISRDNAKTTVYLQMNSLKPEDSAVYYCAADYWFGYGTYEYWGQGTQVTVSS | high polyreactivity |
| QVQLVESGGGLVQAGGSLRLSCAASGYIFEYYAMGWYRQAPGKDRELVAAISWSGGSTYYADSVKGRFTISRDNAKNTVYLQMNSLKPEDTAVYYCAAESYLPYWDSYYRYDYWGQGTQVTVSS | low polyreactivity |
| QVQLVESVGGLVQAGGSLRLSCAASGFIFYQNAMGWYRQAPGKERELVAAISTTGSRTYYADSVKGRFTISRDNAKNTVYLQMNSLKPEDTAVYYCNAPRRVNYDYWGQGTQVTVSS | high polyreactivity |
| QVQLVESGGGLVQAGGSLRLTCAASGSIFISYHMGWYRQAPGKERELVAAIRSRVGSTYYSDSVKGRFTISRDNAKNPVYFQMNCLKPEDPAVYYCAAERSFSRFTTYDYWGQGTQVTVSS | low polyreactivity |
| QVQLVESGGGLVQAGGSLRLSCAASGSIFRWYAMGWSRQAPGKERELVAAISKSGGTTYYADSVKGRFTISRDNAKNTVYLQMNSLKPEDTAVYYCAARRYPYGGYGYRYDYWGQGTQVTVSS | high polyreactivity |
| QVQLVESGGGLVQAGGILRLSCAASGNIFPLYAMGWYRQAPGKERELVAAITWSTTSTYYADSVKGRFTISRDNAKNTVYLQMNSLKPEDTAVYYCAAGAYRRNKSDYYYWGQGTQVTVSS | low polyreactivity |
| QVQLVESGGGLVQAGGSLRLSCAASGYTFYSYALGWYRQAPGKERELVAAITSGGRTNYADSVKGRFTISRDNAKNTVYLQMNSLKPEDTAVYYCAAYVFRAYGRYYYWGQGTQVTVSS | high polyreactivity |
| QVQLVESGGGLVQAGGSLRLSCAASGSTFDRYAMAWYRQAPGKERELVAAISKNGGRTYYADSVKGRFTISRDNAKNTVYLQMNSLKPEDTAVYYCAKDIIKYDYDYWGQGTQVTVSS | low polyreactivity |
| QVQLVESGGGLVQAGGSLRLSCAASGSTLYTYAMGWYRQAPGKERELVATISWSGSSTYYADSVKGRFTISRDNAKNTVYLQMNSLKPEDTAVYYCNKVPGKSGVPPDYDYWGQGTQVTVSS | high polyreactivity |
| QVQLVESGGGLVQAGGSLRLSCAASGNTFRGYAMGWSRQAPGKEMELVAAITSGGRTYYADSVKGRFTISRDNAKNTVYLQMNSLKPEDTAVYYCNARQFAGDEWGQGTLVTVSS | high polyreactivity |
| QVQLVESGGGLVQAGGSLRLSCAASGRIFYFNAMGWYRQAPGKERELVATITYIGGSTHYADSVKGRFTISRDNAKNTVYLQMNSLKPEDTAVYYCAVRDGKDTDTYWYGSWGQGTQVTVSS | low polyreactivity |
| QVQLVESGGGLVQAGGTLRISCAASGITINYNAMGWYRQAPGKEMELVAAITRSGGSTNYADSVKGRFTISRDNAKNTVYLQMNSLKPEDTAVYYCAKGHLYAGHRHYAYGYWGQGTQVTVSS | low polyreactivity |
| QVQLVESGGGLVQAGGSLRLSCAASGRTFTYYAMGWYRQAPGKERELVAAISWSGDDTYYADSVKGRFTISRDNAKNTVYLQMHSLKPEDTAVYYCAAEGGGVYSDYRENTGEDYWGQGTQVTVSS | low polyreactivity |
| QVQLVESGGGLVQAGGSLRLSCAASGSIFGTYAMGWYRQAPGKERELVAAITGSGGRTYYADSVKGRFTISRDNAKNTVYLQMNSLKPEDTAVYYCNKVVYVRSYPPRYDYWGQGTQVSVSS | high polyreactivity |
| QVQLEESGGGLVQAGGSLRLSCAASGSIFSYYVMGWYRQAPGKERELVARNSKRGVTTYYADSVKGRFTISRDNAKNTVYLQMNSLKPEDTAVYFCAASVWRDRIYRYEYWGQGTQVTVSS | high polyreactivity |
| QVQLVESGGGLVQAGGSLRLSCAASGRIFVGNTMGWYRQAPGKERELVAAITYRGGSTYYADSVKGRFTISRDNAKNTVYLQMNSLKPEDTAVYYCATAGYWGGDYWGQGTQVNVSS | low polyreactivity |
| QVQLVESGGGLVHAGGSLRLSCAASGSIFSWYDMGWYRQAPGKERELVADISSGGSTNYADSVKGRFTISRDNAKNTVYLQMNSMKPEDTAVYYCNARLGYLYDYWGQGTQVTVSS | low polyreactivity |
| QVQLQESVGGLVQAGGSLRLSCAASGNIFPTDRMGWYRQAPGKELEFVATNSHGGSTNYADSVKGRFTISRDNAKNTVYLQMNSLKPEDTAVYYCAVWSLGRWRHYYWGQGTQVTVSS | low polyreactivity |

| Sequence | polyreactivity (PSR sort gate) |
| --- | --- |
| QVQLVESGGGLVQAGGILRLSSAASGFTFGYYAMGWYRQAPGTQRELVAAINWSGGRTYYADSVKGRFTISRDNAKNTVYLQMNSLKPEDTAVYYCAADPKKGRQMYYWGQGTQVTVSS | high polyreactivity |
| QVQLVESGGGLVQAGGSLRLSCAASGITFSYYAMGWYRQAPGKERELVAAISRTGTSTYYADSVKGRFTISRDNAKNTVYLQMNSLKPEDTAVYYCAARYYYWGQGTQVTVSS | high polyreactivity |
| QVQLVESGGGLVQAGGSLRLSCAASGSTLERNAMGWYRQAPGKERELVAAITSSTGSTYYADSVKGRFTISRDNAKNTVYLQMNSLKPEDTAVYYFAKRVASVQSNRHDYWGQGTQVTVSS | high polyreactivity |
| QDQLVESGRGLVQAGGSLRLSCAASGSTFDGKAMGWSRQAPGKERELVATISNSGGRSYYADSVKGRFTISRDNAKNTVYLQMNSLKPEETAVYYCAADHPAFGPGYSFDYWGQGTQVTVSS | low polyreactivity |
| QVQLVESGGGLVQAGGSLRLSCAASGSIFVYYAMGWYRQAPGKERELVAAISKTGGRTYYADSVKGRFTISRDNAKNTVYLQMNSLKPEDTAVYYCAARYTIRYKRYDYWGQGTQVTVSS | high polyreactivity |
| QVQLVDSGGGLVQAGGSLRISCAASGYIFSANAMGWYRKAPGKEREFVAAISSTGGSTYYADSVKGRFTISRDTAKNTVYLQMNSLKTEDTSVYYFEAYIRRYFHYDYWGQGTQVTVSS | high polyreactivity |
| QVQLVESGGGLVQAGGRLRFSCADSGITFLRYAIGWSRQAPGKERELVAGISYTGGSTNYADSVKGRFTISRDNAKNTVYLQMNSLKPEDSSVYYCAAQGYRWYDYWGQGTQVTVSS | high polyreactivity |
| QVQLVESGGGLVQAGGSLRLSCAASGSIFLIYAMAWYRQAPGKERELVAAISSGGSTYYADSVKGRFTISRDNAKNTVYLQMNSLKPEDTAVYYCATYSTSVAYHLYYWGQGTQVTVSS | low polyreactivity |
| QVQLVESGGGLVQAGGSLRLSCAASGFIFIGNTMGWYRQAPGKDRELVAAIRWSGGSTYYADSVKGRFTISRDNAKNTVYLQMNSLKPEDTAVYYCAARRWSKTRYYYWGQGTQVTVSS | high polyreactivity |
| QVQLVESGGGLVQAGGSLRLSCAASGRTFGRYALGWYRQAPGKERELVAAIRSGGSTYYADSVKGRFTISRDNAKNTVYLQMNSLKPEDTAVYYCAADIARHLTGFAYYRLDYWGQGTQVTVSS | low polyreactivity |
| QVQLVESRGGIVQAGGSLRLSCAASGRIFGWYAMGWYRQAPGKERELVAAITSSVGRTYYADSVKGRFTISRDNAKNTVYLQMNSLKPEDTAVYYCAKDLYTYYYFEYDYWGQGTQVTVSS | low polyreactivity |
| QVQLVESGGGLVQAGGSLRLSCAASGSTSKSYTMGWYRQAPGKERELVAAISYSGVSTYYADSVKGRFTISRDNAKNTVYLQMNSLKPEDTAVYYCAKRTRKYTVGYYYWGQGTQVTVSS | high polyreactivity |
| QVQLVESGGGLVQAGGSLRLSCAASGTIFAANAMGWYRQAPGKERELVAAISSGDGTYYADSVKGRFTISRDNAKNTVYLQMNSLKPEDTAVYYCAARFTYYSGYYAGSYGYWGQGTQVTVSS | high polyreactivity |
| QVQLVESGGGLVQAGGSLRLSCAASGSTFGTYGMGWSRQAPGKERESVADITSGGSTYYADSVKGRFTISRDNAKNTVYLQMNSLKPEDTAVYSCAASWFVWSTAVPYDYWGQGTQVTVSS | low polyreactivity |
| QVQLVESGGGLVQAGGSLSLSCAASGSIFFYAMGGYRPAPGKERELVADITYTGGSKYADSVKGRFTISRDNAKYTVYLQMNSLKPEDTAVYSCAKLDGGLFDYWGHGTQVTVSS | low polyreactivity |
| QVHLVESGGGLVQAGGSLRLSCAASGRTIAAYAMGWYRQAPGKERELVAAISRSGGSTYYADSVKGRFTISRDNAKNTVYLQMNSLKPEDTAVYYCAAQRQYGKFDYWGQGTQVTVSS | high polyreactivity |
| QVQLVESGGGLVQAGGSLRLSCAASGFTFRYYAMGWYRQAPGKERELVAAITGSGVNTYYADSVKGRFTISRDNAKNTVYLQMNSLKPEDTAVYYCAAESESDPLFERYYWGQGTQVTVSS | high polyreactivity |
| QVQLVESGGGLVQAGGSLRLRCAASGSTCWFSAMGWSRQATGTERELVATITIGARTYADSVKGRCTISRDNPKTTVYVQMNSLKPEETAVYYCAARRRRLEYDYGRNDYWGQGTQVTVTS | low polyreactivity |
| QVQLVESGGGLVQAGGSLRLSCAASGSTFYYNAMGWYRQSPGKERELVARISRSGGSTYADSVKRRFTISRDNAKNTVYLQMNSLKPEDTAVYYCNAEAYGTPEFTSYAVRYDYWGQGTQVTVSS | low polyreactivity |
| QVQLVESGGGLVQAGGSLRLSCAASGGTFKLYAMGWYRQAPGKERELVAAISRRGGSTYYADSVKVRFTISRDNAKNTVYLQMNSLKPEDTAVYYCAAPGPTQSTQRGGYWGQGTQVTVSS | high polyreactivity |
| QVQLVESGGGLVQAGGSLRLSCAASGITFVGNAMGWYRQAPGKERELVAVISRGDSTNYADSVKGRFTISRDNAKNTVYLQMNSLKPEDTAVYYCAADGSRAGQEGNDYCGQGTQVTVSS | low polyreactivity |

Reference: the nanobody polyreactivity screen of Harvey et al. (2022)
